Paper PMC7138820, “Acetylation of histone H3K27 signals the transcriptional elongation for estrogen receptor alpha” (Communications Biology, 2020)

Molecular target: the molecule itself
Assay: crystal structure; AFF4 900–1163, sitting-drop vapor diffusion at 16 °C, 2.2 M NaH2PO4, 0.4 M K2HPO4, 0.1 M MES pH 6.6; SAD phasing; 2.2 Å

B1: AFF4 fragment encompassing residues 900–1163 (crystallised) (domain or fragment, human, UniProt Q9UHB7 900-1163, looked up)
chain: KPRRTKLVFDDRNYSADHYLQEAKKLKHNADALSDRFEKAVYYLDAVVSFIECGNALEKNAQESKSPFPMYSETVDLIKYTMKLKNYLAPDATAADKRLTVLCLRCESLLYLRLFKLKKENALKYSKTLTEHLKNSYNNSQAPSPGLGSKAVGMPSPVSPKLSPGNSGNYSSGASSASASGSSVTIPQKIHQMAASYVQVTSNFLYATEIWDQAEQLSKEQKEFFAELDKVMGPLIFNASIMTDLVRYTRQGLHWLRQDAKLIS
notes: A selenomethionyl derivative was made for SAD phasing; also called AFF4 C-terminal dimerization domain; AFF4 homodimerization domain; source: E. coli BL21(DE3) codon-plus RIL, purified (Ni-chelating resin, HiTrap SP, Superdex 75); not shown: His, N-terminal, cleaved; SUMO, N-terminal, cleaved
binding result: binds
